Measured values published in paper PMC3934923.

Molecular target: LKB1 (endogenous, C2C12 myotubes) (mouse (endogenous in C2C12)) (UniProt Q9WTK7)
Settings: scale: % of the AMPK phosphorylation obtained with AICAR

UniProt Q9WTK7, sequence (Q9WTK7 whole entry): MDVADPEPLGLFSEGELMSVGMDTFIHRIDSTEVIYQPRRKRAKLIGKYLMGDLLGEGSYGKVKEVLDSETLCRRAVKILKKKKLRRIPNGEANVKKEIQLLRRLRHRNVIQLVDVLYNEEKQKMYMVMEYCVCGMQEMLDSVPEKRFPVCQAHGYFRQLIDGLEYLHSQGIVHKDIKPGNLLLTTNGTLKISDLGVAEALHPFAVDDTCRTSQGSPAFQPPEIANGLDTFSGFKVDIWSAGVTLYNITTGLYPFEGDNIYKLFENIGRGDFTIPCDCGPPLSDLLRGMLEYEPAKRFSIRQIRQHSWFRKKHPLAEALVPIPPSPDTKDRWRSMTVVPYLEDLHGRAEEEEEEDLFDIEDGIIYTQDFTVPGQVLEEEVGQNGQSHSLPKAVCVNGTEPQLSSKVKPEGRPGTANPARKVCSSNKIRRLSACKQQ

With “Fyn (endogenous, C2C12 myotubes) (from UniProt P39688 1-537) (enzyme)” the AMPK T172 phosphorylation in C2C12 myotubes transduced with increasing concentrations of 11R-WT, immunoblot; little effect with 11R-Sca was 80.
